Data as given in patent US20230287081A1 (NANTONG YICHEN BIOPHARMA, published 2023).

Key:
[1] = target: T1, hPD-L1-hIGg1Fc (SinoBiological) (human, UniProt Q9NZQ7 19-238); test: ELISA, hPD-L1-hIgG1Fc coated
T1 construct: Bought reagent; also called soluble hPD-L1; human PD-L1; not shown: human IgG1 Fc
Method: (§1) hPD-L1-hIGg1Fc (SinoBiological) or mouse PD-L1-Fc (SinoBiological) (100 ng/well) was coated in 96-well plates, and incubated overnight at 4° C. […] After being washed with PBST containing 2% skimmed milk powder for 4-5 times, anti-human kappa light chain-HRP (Sigma A7146, 1:3000) secondary antibody was added and incubated at room temperature for 1 h, and then washed with PBST containing 2% skimmed milk powder for 4-5 times. Colordevelopment was performed by QuantaBlu fluorescent peroxidase substrate (Life technologies, Cat.15169) and read at 325 nm and 420 nm, or by TMB color reagent (BioLegend, Cat. 421101) and read at 650 nm (unterminated) or 450 nm (terminated). Data was analyzed by nonlinear regression using specific binding model with Prizm Graphpad software.

[2] = target: T2, mouse PD-L1-Fc (SinoBiological) (mouse, UniProt Q9EP73 19-238, limits assumed); test: ELISA, mouse PD-L1-Fc coated
T2 construct: Bought reagent; also called soluble mPD-L1; not shown: Fc
Method: as §1

[3] = target: T3, hPD-L1 on the cell surface (CHO-hPD-L1 cells; A431 cells) (human, UniProt Q9NZQ7 19-290); test: flow cytometry on A431 cells (hGPC3- hPDL1+)
T3 construct: whole, on cells; also called CHO-PD-L1
Method: (§2) A431, MC38-hEGFR, CHO-PD-L1, HepG2, and Hepa1-6 cells (DMEM medium containing 10% FBS, 1% double antibody) were cultured. After trypsinization, 2*10⁵ cells were taken and washed with pre-cooled PBS for 3 times. After blocked with PBS containing 2% FBS at 4° C., supernatant was discarded by centrifugation, 100 µL of the antibody fusion proteins with different concentrations diluted by the PBS solution containing 2% FBS were added and incubated at 4° C. for 1 h. The unbound antibody fusion protein was washed off with PBS containing 2% FBS, and secondary antibody Mouse Anti-Human IgG Fc-APC (Southern biotech) was added and incubated at 4° C. for 1 h. After being washed with PBS containing 2% FBS for three times, the fluorescence intensity was detected by flow cytometry.

[4] = target: T4, mPDL1 on the surface of Hepa1-6 cells (mouse, UniProt Q9EP73 19-290); test: flow cytometry on Hepa1-6 cells (hGPC3- mPDL1+)
T4 construct: whole, on cells; also called mouse PD-L1
Method: as §2

[5] = target: T3, hPD-L1 on the cell surface (CHO-hPD-L1 …); test: flow cytometry on CHO-hPD-L1 cells (hEGFR- hPDL1+)
Method: as §2

[6] = target: T1, hPD-L1-hIGg1Fc (SinoBiological); test: ELISA, hPD-L1-hIgG1Fc coated; weaker than the PD-1m fusion
Method: as §1

[7] = target: T2, mouse PD-L1-Fc (SinoBiological); test: ELISA, mouse PD-L1-Fc coated; weaker than the PD-1m fusion
Method: as §1

Measured: binding result

T2 sequence (Q9EP73 19-238 limits assumed): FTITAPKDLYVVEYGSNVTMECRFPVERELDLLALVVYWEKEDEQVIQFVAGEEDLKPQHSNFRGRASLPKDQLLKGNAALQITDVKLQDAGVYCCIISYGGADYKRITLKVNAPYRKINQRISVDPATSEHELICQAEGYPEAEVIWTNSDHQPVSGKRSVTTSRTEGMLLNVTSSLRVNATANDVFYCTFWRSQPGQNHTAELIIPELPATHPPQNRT
T1 sequence (Q9NZQ7 19-238 limits assumed): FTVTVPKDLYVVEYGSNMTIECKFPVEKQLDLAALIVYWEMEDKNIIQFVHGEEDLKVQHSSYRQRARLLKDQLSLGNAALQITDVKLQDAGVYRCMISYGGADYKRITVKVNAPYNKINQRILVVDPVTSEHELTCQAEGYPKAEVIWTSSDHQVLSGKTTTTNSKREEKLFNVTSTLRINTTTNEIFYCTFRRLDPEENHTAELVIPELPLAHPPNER
T3 sequence (Q9NZQ7 19-290): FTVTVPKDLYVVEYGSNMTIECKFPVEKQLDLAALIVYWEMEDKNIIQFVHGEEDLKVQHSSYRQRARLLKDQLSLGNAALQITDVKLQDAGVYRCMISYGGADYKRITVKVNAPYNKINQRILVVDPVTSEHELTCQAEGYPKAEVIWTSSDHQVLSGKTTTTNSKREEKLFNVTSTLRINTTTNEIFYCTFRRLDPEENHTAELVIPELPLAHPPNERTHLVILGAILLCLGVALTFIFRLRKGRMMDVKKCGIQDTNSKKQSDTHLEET
T4 sequence (Q9EP73 19-290): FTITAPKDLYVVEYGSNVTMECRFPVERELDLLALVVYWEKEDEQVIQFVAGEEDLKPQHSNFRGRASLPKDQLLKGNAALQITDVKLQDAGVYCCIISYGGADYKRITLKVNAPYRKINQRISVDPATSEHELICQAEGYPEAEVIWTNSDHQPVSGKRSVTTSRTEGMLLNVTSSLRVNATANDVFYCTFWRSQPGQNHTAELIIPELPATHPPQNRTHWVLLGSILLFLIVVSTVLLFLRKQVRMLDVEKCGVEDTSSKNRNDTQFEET

B1: PD-1m-aGPC-3L (bispecific antibody, human IgG1, kappa)
heavy: QVQLVQSGAEVKKPGASVKVSCKASGYTFTDYEMHWVRQAPGQGLEWMGALDPKTGDTAYSQKFKGRVTLTADKSTSTAYMELSSLTSEDTAVYYCTRFYSYTYWGQGTLVTVSSASTKGPSVFPLAPSSKSTSGGTAALGCLVKDYFPEPVTVSWNSGALTSGVHTFPAVLQSSGLYSLSSVVTVPSSSLGTQTYICNVNHKPSNTKVDKKVEPKSCDKTHTCPPCPAPPVAGPSVFLFPPKPKDTLMISRTPEVTCVVVDVSHEDPEVKFNWYVDGVEVHNAKTKPREEQYNSTYRVVSVLTVLHQDWLNGKEYKCKVSNKGLPSSIEKTISKAKGQPREPQVYTLPPSRDELTKNQVSLTCLVKGFYPSDIAVEWESNGQPENNYKTTPPVLDSDGSFFLYSKLTVDKSRWQQGNVFSCSVMHEALHNHYTQKSLSLSPGK
light: LDSPDRPWNPPTFSPALLVVTEGDNATFTCSFSNTSESFVLNWYRMSPSNQTDKLAAFPEDRSQPGQDSRFRVTQLPNGRDFHMSVVRARRNDSGTYLCGAISLAPKVQIKESLRAELRVTERRAEVPTAHPSPSPRPAGQFQGGGGSGGGGSGGGGSGDVVMTQSPLSLPVTPGEPASISCRSSQSLVHSNRNTYLHWYLQKPGQSPQLLIYKVSNRFSGVPDRFSGSGSGTDFTLKISRVEAEDVGVYYCSQNTHVPPTFGQGTKLEIKRTVAAPSVFIFPPSDEQLKSGTASVVCLLNNFYPREAKVQWKVDNALQSGNSQESVTEQDSKDSTYSLSSTLTLSKADYEKHKVYACEVTHQGLSSPVTKSFNRGEC
binds: [1] | [2] | [3] | [4]

B2: PD-1m-aEGFRL (bispecific antibody, human IgG1, kappa)
heavy: QVQLQESGPGLVKPSETLSLTCTVSGGSVSSGDYYWTWIRQSPGKGLEWIGHIYYSGNTNYNPSLKSRLTISIDTSKTQFSLKLSSVTAADTAIYYCVRDRVTGAFDIWGQGTMVTVSSASTKGPSVFPLAPSSKSTSGGTAALGCLVKDYFPEPVTVSWNSGALTSGVHTFPAVLQSSGLYSLSSVVTVPSSSLGTQTYICNVNHKPSNTKVDKKVEPKSCDKTHTCPPCPAPPVAGPSVFLFPPKPKDTLMISRTPEVTCVVVDVSHEDPEVKFNWYVDGVEVHNAKTKPREEQYNSTYRVVSVLTVLHQDWLNGKEYKCKVSNKGLPSSIEKTISKAKGQPREPQVYTLPPSRDELTKNQVSLTCLVKGFYPSDIAVEWESNGQPENNYKTTPPVLDSDGSFFLYSKLTVDKSRWQQGNVFSCSVMHEALHNHYTQKSLSLSPGK
light: not shown
binds: [1] | [2] | [5]

B3: PD-1-aEGFRL (bispecific antibody)
heavy: B2 heavy
light: not shown
notes: Wild-type human PD-1 fused to the light chain of the anti-human EGFR antibody
binds: [6] | [7]
